In publication PMC12609122:
Blank lines part the entries; values can stand above or below the substance they belong to.

What was measured:
[1] = target: Tha4 A65CT78C (E10 background) (Pisum sativum); experiment: cross-linking; radiolabelled double-Cys Tha4 integrated into NEM-treated pea thylakoids; 0.25 mM BMOE, 10 min; four conditions: with or without precursor (V-20F)tOE17 (1.5 uM), with PMF (light, 15 °C) or without (dark, on ice; 0.5 uM nigericin and 1 uM valinomycin); SDS-PAGE and fluorography; result as told over the conditions
[2] = target: Tha4 E10A A18CL20C (Pisum sativum); experiment: cross-linking; as a1, the sample with the functional precursor (V-20F)tOE17 and with PMF (light)
[3] = target: Tha4 E10A F41CA45C (Pisum sativum); experiment: cross-linking; radiolabelled double-Cys Tha4 integrated into NEM-treated pea thylakoids; 0.25 mM BMOE, 10 min; four conditions: with or without precursor (V-20F)tOE17 (1.5 uM), with PMF (light, 15 °C) or without (dark, on ice; 0.5 uM nigericin and 1 uM valinomycin); SDS-PAGE and fluorography; result as told over the conditions
[4] = target: Tha4 E10A P56CP58C (Pisum sativum); experiment: as above
[5] = target: Tha4 E10A V8CP9C (Pisum sativum); experiment: as above
[6] = target: Tha4 E10A V21CG23C (Pisum sativum); experiment: as above
[7] = target: Tha4 E10D K39CQ43C (Pisum sativum); experiment: as above
[8] = target: Tha4 E10D P56CP58C (Pisum sativum); experiment: as above
[9] = target: Tha4 E10D V8CP9C (Pisum sativum); experiment: as above
[10] = target: Tha4 P56CP58C (E10 background) (Pisum sativum); experiment: as above
[11] = target: Tha4 V8CP9C (E10 background) (Pisum sativum); experiment: cross-linking; as a1, the samples with the functional precursor (V-20F)tOE17 (1.5 uM), with or without PMF
[12] = target: Tha4 V8CP9C (E10 background) (Pisum sativum); experiment: cross-linking; radiolabelled double-Cys Tha4 integrated into NEM-treated pea thylakoids; 0.25 mM BMOE, 10 min; four conditions: with or without precursor (V-20F)tOE17 (1.5 uM), with PMF (light, 15 °C) or without (dark, on ice; 0.5 uM nigericin and 1 uM valinomycin); SDS-PAGE and fluorography; result as told over the conditions
[13] = target: Tha4 V13CI14C (E10 background) (Pisum sativum); experiment: as above
[14] = target: Tha4 V21CG23C (E10 background) (Pisum sativum); experiment: as above

Substance: Tha4 A65CT78C (E10 background) (natural protein)
stoichiometry N [1]: < 5

Substance: Tha4 E10A A18CL20C (natural protein)
stoichiometry N [2]: < 4

Substance: Tha4 E10A P56CP58C (natural protein)
stoichiometry N [4]: < 4

Substance: Tha4 E10A V8CP9C (natural protein)
stoichiometry N [5]: < 6

Substance: Tha4 E10D P56CP58C (natural protein)
stoichiometry N [8]: < 4

Substance: Tha4 V8CP9C (E10 background) (natural protein)
stoichiometry N [11]: < 6
stoichiometry N [12]: < 4

Substance: Tha4 V21CG23C (E10 background) (natural protein)
bands in the oligomer ladder [14]: < 6 bands

Second part, the substance after the results:

stoichiometry N [3]: < 6
Substance: Tha4 E10A F41CA45C (natural protein)

stoichiometry N [6]: < 10
Substance: Tha4 E10A V21CG23C (natural protein)

stoichiometry N [7]: < 4
Substance: Tha4 E10D K39CQ43C (natural protein)

stoichiometry N [9]: < 6
Substance: Tha4 E10D V8CP9C (natural protein)

stoichiometry N [10]: < 4
Substance: Tha4 P56CP58C (E10 background) (natural protein)

stoichiometry N [13]: < 6
Substance: Tha4 V13CI14C (E10 background) (natural protein)
